Assay [1] concerns the target T1, human sTWEAK protein (Peprotech, 310-06) (human, UniProt O43508 97-249).
T1 construct: Bought protein; also called soluble type TWEAK; ヒトsTWEAK
T1 sequence: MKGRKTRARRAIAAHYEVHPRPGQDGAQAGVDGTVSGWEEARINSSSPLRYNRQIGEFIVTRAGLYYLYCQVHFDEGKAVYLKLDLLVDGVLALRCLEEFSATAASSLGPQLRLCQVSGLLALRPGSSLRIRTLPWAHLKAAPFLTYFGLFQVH
Put plainly: ELISA, sTWEAK immobilised at 0.5 μg/mL, antibody 80 nM to 0.0000003 nM, chemiluminescence. (In general: ELISA stands for enzyme-linked immunosorbent assay.)

For assay [2], the target named is T2, human mTWEAK variant expressed on HEK293 cells (human, UniProt O43508 1-249).
T2 construct: also called human mTWEAK mutant; membrane type TWEAK
T2 sequence: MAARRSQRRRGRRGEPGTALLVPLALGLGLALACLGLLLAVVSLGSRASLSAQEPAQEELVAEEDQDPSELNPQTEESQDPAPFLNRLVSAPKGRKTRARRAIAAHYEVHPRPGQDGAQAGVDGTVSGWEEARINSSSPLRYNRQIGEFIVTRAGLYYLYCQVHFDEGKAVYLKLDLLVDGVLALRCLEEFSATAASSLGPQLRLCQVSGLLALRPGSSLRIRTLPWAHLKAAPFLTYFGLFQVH
Put plainly: flow cytometry (BD FACSArray) on HEK293 cells transfected with human mTWEAK vector, antibody 80 nM to 0.001355 nM, MFI. (In flow cytometry, cells or beads pass a laser one at a time.)

Assay [3] addresses T2, human mTWEAK variant expressed on …. Put plainly: hybridoma screening (Examples 3-6).
Assay [4] has as its target T1, human sTWEAK protein (Peprotech, 310-06). Put plainly: hybridoma screening, antigen ELISA on immobilised sTWEAK (Examples 3-6).

Numbering of substitutions follows the chain as printed.

B1: fully human TBA4-1 (antibody, human IgG1, kappa, V domains shown)
VH: QVQLVESGGGVVQPGRSLRLSCAASGFTFSSYGMHWVRQAPGKGLAWVAIISSDGNNKYYIDSVKGRFTISRDNSKNTLYLQMNNLRAEDTAVYYCAKDSHISIFGAVDSWGQGTLVTVSS
VL: AIQMTQSPSSLSASVGDRVTITCRASQAIRNDLGWYQQKPGKAPKLLIYAASSLQSGVPSRFSGSGSGTDFTLTISSLQPEDFATYYCLQDYNYPWTFGQGTKVEIKR
notes: Human variable regions of TBA4-1 joined to human Ig gamma1 and human kappa constant regions; also called fully human antibody of TBA4-1; 完全ヒト型TBA4-1
As to B1, the binding result in assay [1] and in assay [2] was “binds” throughout.

B2: fully human TBA3-35.1 (antibody, human IgG1, kappa, V domains shown)
VH: EVQLLESGGGLVQPGGSLRLSCAASGFTFSSYAMSWVRQAPGKGLEWVSAIGNSGFYTHYADSVKGRFTISRDNSKNTLYLQMNSLRAEDTAVYYCAKVGIAVVGDYYQFGMDVWGQGTTVTVSS
VL: B1 VL with A1D, A28G, A50G
For the molecule B2, the binding result in assay [1] and in assay [2] was “binds” each time.

B3: TBA4-1 (chimeric antibody) (antibody, V domains shown)
VH: B1 VH
VL: B1 VL
As for B3, the binding result in assay [3] and in assay [4] was “binds” in each case.

B4: fully human TBA3-25 (antibody, human IgG1, kappa, V domains shown)
VH: QVQLVQSGAEVKKPGASVRVSCKVSGYTLIDLSMHWVRQAPGNGLEWMGGFDPENGEKIYAEKFQGRVTMTEDTSTDTAYMDLSSLRSEDTAVYYCASGYSYGHFDYWGQGTLVTVSS
VL: DIQMTQSPSTLSASVGDRVTITCRASQNIGRWLAWYQQKPGKAPNLLIYKASRLESGVPSRFSGSGSGTEFTLTITSLQPDDFATYYCQQYNRYSRTFGQGTKVEIKR
modifications: in most of the purified antibody: N-terminal glutamine (amino acid 1) modified to pyroglutamic acid; C-terminal lysine (amino acid 448) deleted
notes: Human variable regions of TBA3-25 joined to human Ig gamma1 and human kappa constant regions; Analysis of the purified antibody found pyroglutamate at the heavy chain N-terminus and loss of the heavy chain C-terminal lysine in most of it; also called fully human antibody of TBA3-25; 完全ヒト型TBA3-25
As to B4, the binding result in assay [1] and in assay [2] was “binds” in each case.
